Measured values published in article PMC5356265, “Increased enzymatic hydrolysis of sugarcane bagasse by a novel glucose- and xylose-stimulated β-glucosidase from Anoxybacillus flavithermus subsp. yunnanensis E13^T” (BMC Biochemistry, 2017).

Test system: T1, O=[N+]([O-])c1ccc(O[C@@H]2O[C@H](CO)[C@@H](O)[C@H](O)[C@H]2O)cc1
T1 construct: full-length GH1 enzyme, no signal peptide; gene 1347 bp (448 residues deduced), 52 kDa; pET22b in E. coli BL21 (DE3), heat treatment and Ni-NTA purified
Assay: p-nitrophenol release at A410, Lineweaver-Burk
Assay type: biochemical, Anoxybacillus flavithermus subsp. yunnanensis
Settings: Na2HPO4-citric acid buffer pH 7.0, 60 °C, no added sugar

BglP (Bglp) (Anoxybacillus flavithermus subsp. yunnanensis)
Km: 0.29 ± 0.01 mM
